In publication doi:10.1101/756874 (2019):
No end group written: not given here. *: point of attachment. TAMRA = 5-carboxytetramethylrhodamine, CN(C)c1ccc2c(-c3ccc(C(=O)*)cc3C(=O)[O-])c3ccc(=[N+](C)C)cc-3oc2c1

B1: BAK (UniProt:Q16611, residues 16–185, C166S) (domain or fragment)
chain: EPALPSASEEQVAQDTEEVFRSYVFYRHQQEQEAEGVAAPADPEMVTLPLQPSSTMGQVGRQLAIIGDDINRRYDSEFQTMLQHLQPTAENAYEYFTKIATSLFESGINWGRVVALLGFGYRLALHVYQHGLTGFLGQVTRFVVDFMLHHSIARWIAQRGGWVAALNLGN
B2: MCL-1 (UniProt:Q07820, residues 168–327, C286S) (domain or fragment)
chain: GSEEEEDELYRQSLEIISRYLREQATGAKDTKPMGRSGATSRKALETLRRVGDGVQRNHETAFQGMLRKLDIKNEDDVKSLSRVMIHVFSDGVTNWGRIVTLISFGAFVAKHLKTINQESSIEPLAESITDVLVRTKRDWLVKQRGWDGFVEFFHVEDLEGG

Experiments:
Test in all cases: without detergent
[1] = biological target: BAXBH3
[2] = biological target: MCL-1BH3
[3] = biological target: B2
[4] = biological target: B1
[5] = biological target: B2; remark: listed apart in the source
[6] = biological target: B1; remark: listed apart in the source

Kd [1] | Kd [2] | koff [4] | Kd [6] | Binder | also measured
500 µM | 5000 µM | – | – | B1 | –
– | – | 230 s⁻¹ | 220 µM | {TAMRA}-RGEEEQWAREIGAQLRRAADDLNAQYERRRQEEQQ [PUMABH3, TAMRA-labelled 35-residue peptide (UniProt: Q9BXH1, residues 127–161, M144A)] | koff [3]: 0.00246 s⁻¹; Kd [5]: 0.000174 µM
– | – | – | 1000 µM | {TAMRA}-ALQPSSTMGQVGRQLAIIGDDINRRYDSEFQTMLQ [BAKBH3, TAMRA-labelled 35-residue peptide (UniProt:Q16611, residues 64–98, P64A)] | –
0.071 µM | 0.182 µM | – | – | B2 | koff [1]: 0.613 s⁻¹; koff [2]: 0.52 s⁻¹
– | – | 1400 s⁻¹ | 230 µM | {TAMRA}-SESQEDIIRNIARHLAQVGDSMDRSIPPGLVNGLA [BIDBH3, TAMRA-labelled 35-residue peptide (UniProt:P55957, residues 76–110)] | –
